Patent publication US20200048328A1 (Bristol-Myers Squibb, published 2020)

Experiments:
[1] = target: T1, mouse serum albumin (mouse, UniProt P07724 25-608); test: direct binding ELISA, albumin coated
T1 construct: also called MSA; MuSA

[2] = target: T2, rhesus serum albumin (rhesus, UniProt Q28522 17-600); test: direct binding ELISA, albumin coated
T2 construct: also called RhSA; Rh-SA

[3] = target: T3, human serum albumin (human, UniProt P02768 25-609); test: direct binding ELISA, albumin coated
T3 construct: immobilized on chips or coated on plates elsewhere; also called HSA; HuSA

[4] = target: T4, human PCSK9 (human, UniProt Q8NBP7 31-692); test: PCSK9:LDLR FRET, competition
T4 construct: also called hPCSK9; huPCSK9

[5] = target: T4, human PCSK9; test: PCSK9:EGFA FRET 1, competition
[6] = target: T4, human PCSK9; test: PCSK9:EGFA FRET 2, competition

Binder | EC50 [1] | EC50 [2] | EC50 [3] | IC50 [4] | IC50 [5] | IC50 [6]
PCSK9-PKE2 tandem 4472_E09 (designed binder, In the real molecule the two parts given here are one polypeptide, joined by the undisclosed linker A. They are written as two chains only because the linker has no letters., not shown: Linker 'A' joining ...NYRTE of the PCSK9 domain to GVSDV... of the PKE2 domain) PCSK9 domain: MGVSDVPRDLEVVAATPTSLLISWDAPAEGYGYYRITYGETGGNSPVQEFTVPVSKGTATISGLKPGVDYTITVYAVEFDFPGAGYYHRPISINYRTE PKE2 domain: GVSDVPRDLEVVAATPTSLLISWDAPAVTVRYYRITYGREVQKYSDLGPLYIYQEFTVPGSKSTATISGLKPGVDYTITVYAVTGSGESPASSKPISINYRTEHHHHHH | 7 nM | 19.8 nM | 23.8 nM | 1.3 nM | 5.81 nM | 4.81 nM
PCSK9-PKE2 tandem 4472_H09 (designed binder, The real molecule is ONE polypeptide: PCSK9 domain, undisclosed linker C, PKE2 domain. It is given here as two chains because the linker letters are unknown., not shown: The inter-domain linker) PCSK9 domain: MGVSDVPRDLEVVAATPTSLLISWDAPAEGYGYYRITYGETGGNSPVQEFTVPVSKGTATISGLKPGVDYTITVYAVEFDFPGAGYYHRPISINYRTE PKE2 domain: GVSDVPRDLEVVAATPTSLLISWDAPAVTVRYYRITYGREVQKYSDLGPLYIYQEFTVPGSKSTATISGLKPGVDYTITVYAVTGSGESPASSKPISINYRTEHHHHHH | 4 nM | 26.8 nM | 27.8 nM | 3 nM | 9.66 nM | 7.17 nM
PCSK9-PKE2 tandem 4472_F06 (designed binder, The real molecule is ONE polypeptide: PCSK9 domain, undisclosed linker 'G' (a code letter, not the residue), PKE2 domain. It is given here as two chains because the linker letters are unknown., not shown: The inter-domain linker) PCSK9 domain: MGVSDVPRDLEVVAATPTSLLISWDAPAEGYGYYRITYGETGGNSPVQEFTVPVSKGTATISGLKPGVDYTITVYAVEFDFPGAGYYHRPISINYRTE PKE2 domain: GVSDVPRDLEVVAATPTSLLISWDAPAVTVRYYRITYGREVQKYSDLGPLYIYQEFTVPGSKSTATISGLKPGVDYTITVYAVTGSGESPASSKPISINYRTEHHHHHH | 11.3 nM | 40.8 nM | 58.9 nM | 1.1 nM | 4.5 nM | 3.42 nM
PCSK9-PKE2 tandem 4472_C08 (designed binder, The real molecule is ONE polypeptide: PCSK9 domain, undisclosed linker 'E' (a code letter, not the residue), PKE2 domain. It is given here as two chains because the linker letters are unknown., not shown: The inter-domain linker) PCSK9 domain: MGVSDVPRDLEVVAATPTSLLISWDAPAEGYGYYRITYGETGGNSPVQEFTVPVSKGTATISGLKPGVDYTITVYAVEFDFPGAGYYHRPISINYRTE PKE2 domain: GVSDVPRDLEVVAATPTSLLISWDAPAVTVRYYRITYGREVQKYSDLGPLYIYQEFTVPGSKSTATISGLKPGVDYTITVYAVTGSGESPASSKPISINYRTEHHHHHH | 4.8 nM | 25.7 nM | 40.4 nM | 1.9 nM | 9.38 nM | 5.09 nM
PCSK9-PKE2 tandem 4472_F04 (designed binder, The real molecule is ONE polypeptide: PCSK9 domain, undisclosed linker D, PKE2 domain. It is given here as two chains because the linker letters are unknown., not shown: The inter-domain linker) PCSK9 domain: MGVSDVPRDLEVVAATPTSLLISWDAPAEGYGYYRITYGETGGNSPVQEFTVPVSKGTATISGLKPGVDYTITVYAVEFDFPGAGYYHRPISINYRTE PKE2 domain: GVSDVPRDLEVVAATPTSLLISWDAPAVTVRYYRITYGREVQKYSDLGPLYIYQEFTVPGSKSTATISGLKPGVDYTITVYAVTGSGESPASSKPISINYRTEHHHHHH | 3.8 nM | 27.8 nM | 40.3 nM | 1.2 nM | 3.99 nM | 4.18 nM

More lines, in order of falling EC50 [1], values ahead:

EC50 [1] | EC50 [2] | EC50 [3] | IC50 [4] | IC50 [5] | IC50 [6] | Binder
10 nM | 48.3 nM | 61.3 nM | 2.4 nM | 7.81 nM | 6.81 nM | PCSK9-PKE2 tandem 4472_G10 (designed binder, The real molecule is ONE polypeptide: PCSK9 domain, undisclosed linker H (a code letter), PKE2 domain. It is given here as two chains because the linker letters are unknown., not shown: The inter-domain linker) PCSK9 domain: MGVSDVPRDLEVVAATPTSLLISWDAPAEGYGYYRITYGETGGNSPVQEFTVPVSKGTATISGLKPGVDYTITVYAVEFDFPGAGYYHRPISINYRTE PKE2 domain: GVSDVPRDLEVVAATPTSLLISWDAPAVTVRYYRITYGREVQKYSDLGPLYIYQEFTVPGSKSTATISGLKPGVDYTITVYAVTGSGESPASSKPISINYRTEHHHHHH
3.9 nM | 15.7 nM | 26.9 nM | 1.4 nM | 6.13 nM | 3.76 nM | PCSK9-PKE2 tandem 4472_A11 (designed binder, In the real molecule the two parts given here are one polypeptide, joined by the undisclosed linker B. They are written as two chains only because the linker has no letters., not shown: Linker 'B' joining ...NYRTE of the PCSK9 domain to GVSDV... of the PKE2 domain) PCSK9 domain: MGVSDVPRDLEVVAATPTSLLISWDAPAEGYGYYRITYGETGGNSPVQEFTVPVSKGTATISGLKPGVDYTITVYAVEFDFPGAGYYHRPISINYRTE PKE2 domain: GVSDVPRDLEVVAATPTSLLISWDAPAVTVRYYRITYGREVQKYSDLGPLYIYQEFTVPGSKSTATISGLKPGVDYTITVYAVTGSGESPASSKPISINYRTEHHHHHH
